Assay results as given in US20160145343A1.

Legend:
[1] = target: Normal MUC1 on non-transformed MCF-10A cells and on normal tissue (human) (UniProt P15941); assay: flow cytometry, MCF10a cells, secondary antibody only
[2] = target: Normal MUC1 on non-transformed MCF-10A cells and on normal tissue (human) (UniProt P15941); assay: flow cytometry, MCF10a cells
BSA = BSA (UniProt P02769); assay: ELISA on coated BSA, antibody 0.01 mg/ml, mean of 3
Synthetic peptide (…)2 = assay: ELISA on coated peptide, antibody 0.01 mg/ml, mean of 3
Sequence of Synthetic peptide (…)2 (peptide, as listed by the source): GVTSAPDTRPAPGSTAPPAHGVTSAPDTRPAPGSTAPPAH

[3] = target: Synthetic peptide …; assay: as above
[4] = target: SEQ ID NO: 346 glycopeptide with TF-antigen at Ser5; assay: ELISA on coated glycopeptide, antibody 0.01 mg/ml, mean of 3
[5] = target: SEQ ID NO: 346 glycopeptide with TF-antigen at Thr16; assay: as above
[6] = target: SEQ ID NO: 346 glycopeptide with TF-antigen at Thr4 and Thr9; assay: as above
[7] = target: SEQ ID NO: 346 glycopeptide with TF-antigen at Thr4; assay: as above
[8] = target: SEQ ID NO: 346 glycopeptide with TF-antigen at Thr9; assay: as above
[9] = target: SEQ ID NO: 346 glycopeptide with Tn-antigen at Thr4, Thr9 and Thr16; assay: as above
[10] = target: Normal MUC1 on non-transformed MCF-10A cells and on normal tissue (human) (UniProt P15941); assay: immunohistochemistry, colon tissue microarray
[11] = target: Normal MUC1 on non-transformed MCF-10A cells and on normal tissue (human) (UniProt P15941); assay: immunohistochemistry, colon tissue microarray, normal samples

Sequence of BSA (P02769 25-607 limits assumed): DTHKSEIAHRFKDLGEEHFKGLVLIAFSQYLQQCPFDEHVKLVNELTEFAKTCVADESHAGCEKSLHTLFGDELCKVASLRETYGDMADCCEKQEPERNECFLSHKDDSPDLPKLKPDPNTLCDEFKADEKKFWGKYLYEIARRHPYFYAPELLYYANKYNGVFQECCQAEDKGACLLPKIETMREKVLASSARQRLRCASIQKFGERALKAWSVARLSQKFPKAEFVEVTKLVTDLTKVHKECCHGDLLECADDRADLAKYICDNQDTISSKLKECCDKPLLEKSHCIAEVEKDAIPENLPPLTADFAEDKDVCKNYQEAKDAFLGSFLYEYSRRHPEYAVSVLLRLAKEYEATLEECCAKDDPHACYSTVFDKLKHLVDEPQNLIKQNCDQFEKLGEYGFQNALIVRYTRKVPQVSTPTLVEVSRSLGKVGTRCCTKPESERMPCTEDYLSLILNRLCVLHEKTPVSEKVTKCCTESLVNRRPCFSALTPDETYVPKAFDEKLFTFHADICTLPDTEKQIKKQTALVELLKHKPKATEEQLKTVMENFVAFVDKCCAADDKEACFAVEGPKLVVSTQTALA

Substance | percentage of APC+ stained cells [1] [%] | percentage of APC+ stained cells [2] [%] | ELISA absorbance at 450 nm (BSA) [absorbance] | ELISA absorbance at 450 nm (Synthetic peptide (…)2) [absorbance] | ELISA absorbance at 450 nm [3] [absorbance] | ELISA absorbance at 450 nm [4] [absorbance] | ELISA absorbance at 450 nm [5] [absorbance] | ELISA absorbance at 450 nm [6] [absorbance] | ELISA absorbance at 450 nm [7] [absorbance] | ELISA absorbance at 450 nm [8] [absorbance] | ELISA absorbance at 450 nm [9] [absorbance] | samples MUC1+ by staining (of 6 normal samples) [10] | MUC1+ samples stained (of 3 MUC1+ normal samples) [11]
M-2nd. (APC-labeled secondary antibody only control for the mouse antibodies) | 0.6 |  |  |  |  |  |  |  |  |  |  |  | 
Hu-2nd. (APC-labeled secondary antibody only control for the human antibodies) | 0.25 |  |  |  |  |  |  |  |  |  |  |  | 
VU-3C6 (Abcam), mouse anti-MUC1 antibody |  | 99.2 | 0.2 | 2.3 | 1.5 | 2 | 1.5 | 2.4 | 2 | 2.4 | 2.4 |  | 
VU-4H5 (Abnova), mouse anti-MUC1 antibody |  | 3.85 | 0.1 | 2.5 | 1.9 | 1.8 | 1.9 | 0.1 | 1.8 | 0.1 | 0.1 |  | 
HMPV (BD Biosciences), mouse anti-MUC1 antibody |  |  |  |  |  |  |  |  |  |  |  | 3 | 3
